From PMC3234216 (PLoS Pathogens, 2011) come the findings set out here.

This experiment deals with PA63 heptamer (63 kD form of anthrax toxin protective antigen) (Bacillus anthracis, UniProt P13423). The experiment in a line: NMR titration. As to conditions: both partners purified.
Chain of PA63 heptamer (63 kD form of anthrax toxin protective antigen) (P13423 197-764): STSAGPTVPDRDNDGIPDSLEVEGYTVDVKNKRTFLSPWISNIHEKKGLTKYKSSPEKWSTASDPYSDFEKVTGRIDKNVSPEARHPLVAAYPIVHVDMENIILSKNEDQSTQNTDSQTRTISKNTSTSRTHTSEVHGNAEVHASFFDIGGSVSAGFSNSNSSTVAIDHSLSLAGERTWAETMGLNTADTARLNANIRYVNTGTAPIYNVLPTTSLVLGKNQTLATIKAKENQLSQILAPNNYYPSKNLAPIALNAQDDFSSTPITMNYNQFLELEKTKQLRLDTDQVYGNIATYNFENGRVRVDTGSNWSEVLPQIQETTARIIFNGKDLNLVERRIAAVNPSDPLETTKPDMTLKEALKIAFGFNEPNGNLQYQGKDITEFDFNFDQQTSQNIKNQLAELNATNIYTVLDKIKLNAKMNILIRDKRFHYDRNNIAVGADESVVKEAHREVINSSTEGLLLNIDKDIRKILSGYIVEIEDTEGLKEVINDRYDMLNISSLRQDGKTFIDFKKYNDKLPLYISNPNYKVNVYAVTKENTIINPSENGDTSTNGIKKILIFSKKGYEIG

B1: ANTXR2 VWA-domain (anthrax toxin receptor type 2, extracellular von Willebrand factor type A domain) (domain or fragment)
chain: SCRRAFDLYFVLDKSGSVANNWIEIYNFVQQLAERFVSPEMRLSFIVFSSQATIILPLTGDRGKISKGLEDLKRVSPVGETYIHEGLKLANEQIQKAGGLKTSSIIIALTDGKLDGLVPSYAEKEAKISRSLGASVYCVGVLDFEQAQLERIADSKEQVFPVKGGFQALKGIINSILAQSC
notes: also called capillary morphogenesis protein 2; CMG2
On to B1, for which the binding result is recorded as “binds”.
